Measurements reported in paper PMC8804299, “The Response of the Estrogen-Related Receptor to 20-Hydroxyecdysone in Bombyx mori: Insight Into the Function of Estrogen-Related Receptor in Insect 20-Hydroxyecdysone Signaling Pathway”.

T1: BmEcR (ecdysone receptor);BmUSP (ultraspiracle) (Bombyx mori;Bombyx mori, UniProt P49881;P49700 1-606;1-462, |)
T1 sequence 1: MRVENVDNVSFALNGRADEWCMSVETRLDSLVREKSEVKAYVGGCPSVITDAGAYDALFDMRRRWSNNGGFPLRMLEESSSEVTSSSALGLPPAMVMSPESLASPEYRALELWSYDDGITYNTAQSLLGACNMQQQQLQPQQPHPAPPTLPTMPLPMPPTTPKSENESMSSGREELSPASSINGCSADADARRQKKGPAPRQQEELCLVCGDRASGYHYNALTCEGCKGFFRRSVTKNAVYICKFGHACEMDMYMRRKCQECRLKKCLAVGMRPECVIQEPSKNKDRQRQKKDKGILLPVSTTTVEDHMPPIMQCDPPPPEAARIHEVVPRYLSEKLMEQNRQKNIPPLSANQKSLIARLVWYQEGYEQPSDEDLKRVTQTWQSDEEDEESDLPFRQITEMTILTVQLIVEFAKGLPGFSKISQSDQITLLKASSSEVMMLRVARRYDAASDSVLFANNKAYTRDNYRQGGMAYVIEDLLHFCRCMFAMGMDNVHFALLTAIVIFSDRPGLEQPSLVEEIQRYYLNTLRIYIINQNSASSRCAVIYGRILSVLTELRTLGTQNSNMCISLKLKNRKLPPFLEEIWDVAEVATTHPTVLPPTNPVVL
T1 sequence 2: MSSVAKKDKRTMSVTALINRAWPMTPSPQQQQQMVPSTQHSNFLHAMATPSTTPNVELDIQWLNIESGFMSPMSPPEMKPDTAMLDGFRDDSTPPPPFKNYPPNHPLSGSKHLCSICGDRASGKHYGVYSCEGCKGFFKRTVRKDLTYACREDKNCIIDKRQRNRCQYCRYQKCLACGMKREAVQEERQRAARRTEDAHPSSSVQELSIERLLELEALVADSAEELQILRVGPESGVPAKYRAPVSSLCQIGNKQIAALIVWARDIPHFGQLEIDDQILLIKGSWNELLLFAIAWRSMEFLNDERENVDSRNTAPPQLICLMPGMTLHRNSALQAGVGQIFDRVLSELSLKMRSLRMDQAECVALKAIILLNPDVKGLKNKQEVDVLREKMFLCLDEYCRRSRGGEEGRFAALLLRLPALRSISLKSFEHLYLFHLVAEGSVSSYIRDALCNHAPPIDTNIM

B1: EcRE-like 1 mutant probe (Bio-ERRE-1 mut) (dsDNA)
DNA 1: ATTAGACGATGACGGGTCATGACCT
DNA 2: AGGTCATGACCCGTCATCGTCTAAT
B2: EcRE-like 1 probe (Bio-ERRE-1) (dsDNA)
DNA 1: ATTAAGTAGCAGTAAACTGTGACCT
DNA 2: AGGTCACAGTTTACTGCTACTTAAT
B3: EcRE-like 2 probe (Bio-ERRE-2) (dsDNA)
DNA 1: TAAAGAACCTTTATTAAAATTAAAATA
DNA 2: TATTTTAATTTTAATAAAGGTTCTTTA
B4: EcRE-like 3 probe (Bio-ERRE-3) (dsDNA)
DNA 1: GTTCCGAAATAAAATTACCTGATGGTA
DNA 2: TACCATCAGGTAATTTTATTTCGGAAC
B5: EcRE-like 8 probe (Bio-ERRE-8) (dsDNA)
DNA 1: GAGACAGCGTTAGCTGATATTCTAAAT
DNA 2: ATTTAGAATATCAGCTAACGCTGTCTC

The binders below were run against T1, BmEcR (ecdysone receptor);BmUSP … (assay: EMSA; EMSA: 25 C for 25 min; Beyotime chemiluminescent EMSA kit (binding buffer not stated); 5% native PAGE in Tris-borate-EDTA (45 mM Tris-borate, 1 mM EDTA, pH 8.3); probe 5 uM, BmEcR 0.3 ug/uL, BmUSP 0.45 ug/uL). Settings: protein: recombinant;recombinant; tags: ;; copies: 1;1; label: 3'-biotin; blunt.

Binder | binding result
B1 | no binding
B2 | binds
B3 | no binding
B4 | no binding
B5 | no binding
